The data set in a line: yeast display, Sf9 membrane polyspecificity reagent, FACS + sequencing; frameworks hold sequencing errors. An outline of the steps:
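In a synthetic yeast display library (Saccharomyces cerevisiae BJ5465), nanobody expression was induced with galactose for 36–48 hours. FACS gates were set low and high (top ~1%) using anti-HA fluorescence for expression and streptavidin fluorescence for binding of the Sf9 membrane reagent. Each polyreactivity label is drawn from the gate of origin.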
As for “QVQLVESGGGLVQAGGSLRLSCAASGFISRYYYMGWYRQAPGKERELVAAIRWSGDRTYYADSVKGRFTISRDNAKNTVYLLMNSLKPEDTAVYYCNADVVLGRSWRGYWGQGTQVTVSS”, the “polyreactivity (PSR sort gate)” value is recorded as “high polyreactivity”.
Then “QVQLVESGGGLVQAGGSLRLSCAASGFIFQDYAMGWYRQAPGKERELVAAITQSSGSTYYADSVKGRFTISRDNAKNTVYLQMNSLKPEDTAVYYCNTAYDFSRQASYDYWGQVTQVTVSS”, with “low polyreactivity”; and “QVQLVESGGGLVQAGGSLRLSCAASGLTFPYYVMGWYIQAPGKERELVAAIDDGGGSTYYADSVKGRFTISRDNAKNTVYLQMNSLKPEDTAVYYCAAQVDYLAHYGYWGQGTQVTVSS”, with “low polyreactivity”.
In the case of “QVQLVESGGGLVQAGGSLRLSRPASGFTYIYSVMGWYRQAPGKERELVAAINGRGDRKYYADSVKGRFTISRDNAKNTGYLQMNSLKPEDTAVYYCNARTHTWGYSAKFDYWGQGTQVTVSS”, the “polyreactivity (PSR sort gate)” value is reported as “high polyreactivity”.
With “QVQLVESGGGLVQAGGSLRLSCAASGFTFSHYAKGWYRQAPGKDRELVAAITASGGNTYYADSVKGRFTISRDNAKNTVYLQMNSLKPEDTAVYYCNAVSLKFTRKYEYWGQGTQVTVSS”, the “polyreactivity (PSR sort gate)” value is “high polyreactivity”.
Then “QVQLVESAVGLVQAGGSRRLSCAASGRTFDSNAMGWYRQAPGKEREFVAAISWSGGSTYYADSVKGRFTISRDNAKNTVYLQMNSLKREETAVYYCNRLGRHAPATRYGYWGLGTQVTVSS”, with “high polyreactivity”.
For the sequence “QDQLVESGGGLVQAGGSLRLSCAASVSIFASYAMGRYRPAPGKERELVAAISSRGSRTYYADSVKGRFTISRDNAKNTVYLQMNRLKPQDTAVYYCAAYSPDYYNAEFGYWGQGTHVTVSS”, the “polyreactivity (PSR sort gate)” value is “high polyreactivity”.
For “QVQLVESGGGLVQAGGSLRLSCAASGIIFYGNVMGWYRQAPGKERELVAGINSSGASTYYADSVKGRFTISRDNAKNTVYLQMNSLKPEDTAVYYCAARGPRVRLNSYYAGRYDYWGQGTQVTVSS”, the “polyreactivity (PSR sort gate)” value is “low polyreactivity”.
As to “QVQHVESGGGLVQAGGSLRLSCAASGLNFTRYVMGWYRQAPGKERELVAVISSGGSTYYADSVKGRFTISRDNAKNTVYLQMNSLKPEDTAVYYCAAYLRYSQVTYDYWGQGTQVTVSS”, the “polyreactivity (PSR sort gate)” value is recorded as “high polyreactivity”.
To “QVQLVESGGGLVQAGGSLRLSCAASGSNFTVYDMGWYRQAPGKERELVAAISFSGGSTYYADSVKGRFTISRDTAKNTVYLQMNSLKPVDTAVYYCAADTYTTPYEYWGQGTQVTVSS” belongs “low polyreactivity”; to “QVQLVESGGGLVQAGGSLRLSCAASGRIFAVNALGWYRQAPGPERELVATIRGSGTSTYYADSVKGRFTISRDHATNTVYLQMNSLKPEDTAVYYCAKAYNGRYTWRYDYWGQGTQVTVSS”, “high polyreactivity”; to “QVQLVESGGGLVQAGGSLRLSCAASGSTRRYFKGWYRQAPGKERELVAVISRGGSTYYADSVKGRFTISGDNAKNTVYLQMNSLKPEDTAVYYCNVQPVIPRGGDYWGQGTQVTVSS”, “high polyreactivity”.
Then “QVRLVESGGGLVQAGGSLRLSCAASGFTFSPYAMGWYRQAPGKERELVAAITSSGGSTYYADSVKGRFTISRDNAKNTVYLQMNSLKPDDTAVSSCAKEIRYSSSVSESDYWGQGTQVSVSS”, with “high polyreactivity”; and “QVQLVESGGGLVQAGGSLRLSCAASGRIFGFYAMGWYRQAPGKERELVAAISSRGGRTYYADSVKGRFTISRDNAKNTVYLQMNSLKPEDTAVYYCAAGDGKYGRDGDYWGQGTQVTVSS”, with “high polyreactivity”; and “QVQLVESGGGLVQAGGSLRLSCAASGITFWLYAMGWSRQAPGKERELVAGIDNGGSTTYADSVKGRFTISRDNAKNTVYLQMNSLNPEDTAVYYCAATFEWDPVYPYNGFIYDYWGQGTQVTVSS”, with “high polyreactivity”.
To “QVQLVESGGGLVQAGGSLRLSCAASGITFKWYAMGWYRQAPGKERELVAAISWSTGSTYYADSVKGRFTISRDNAKNTVYLPMNSLKPEDTAVYYCAARVKRPQTGYDRRYGYWGQGTQVTVSS” belongs “high polyreactivity”; to “QVQLQESGGGLAQAGGSLRLICAASGTLFPADSMGWYRQAPGKERELVAGITSGANTYYADSVNGRFTISHDNAKQTVYLQMDSLIPEDIAVYYCAAPGSSTYDLESWGQGTQVNVSS”, “high polyreactivity”; to “QVHLQESGGGLVQAGGSLRLSCAASGYITLAQTIGWYRQAPGQEREFVASIALGSSTYYTDSVKGSFTISRDNAKTTVYLQMNSLKPEDTAVYYCAARVGSSYAHDYWGQGTQVTVSS”, “low polyreactivity”.
Regarding “QVQLVESGGGLVQAGGSLRLSCAASGRTFDRYAMGWYRQAPGKERELVATISRRSSITYYADSVKGRFTISRDNAKNTVYLQMNRLKPEDTAVYYCAATSLYPTWRRGYDYWGQGTQVTVSS”, the “polyreactivity (PSR sort gate)” value is “high polyreactivity”.
Then “QVQLVESGGGLVQAGGSLRLSCDASGSTFTGYAMGWYRQAPGKERELVAAISRSGGSTSYADSVKGRFTISRDNAKNTVYLQMNSLKPEDTAGYYCAAQVQGTTRAKQRGGIGELDYWGQGTQVTVSS”, with “low polyreactivity”; and “QVQLEESGGGLVQAGGSLRLSCAASGITFRYYAMGWYRQAPGKEWELVAAITRSGSSTFYADSVKGRFTISRDNAKNTVYLQMNSLKPEDSAVYYCAAESVRAVFPDRYKYWGQGTQVTVSS”, with “high polyreactivity”.
To “QVQLVETGGGLVQAGGTLRLSCAASGRIFLTNAMGWYRQAPGKERELVATITASGGTTYYADSVKGRFTISRDNAKITVYLQMNSLKPDDTAVYYCAKRYYLRGFGRYYYCGQGTQVTVSS” belongs “high polyreactivity”; to “QVQLVESGGGLVQAGGSLRLSCAASGRTFSYYAMGWYRQAPGKERELVAAISSGDSTYYADSVKGRFTFSRDNAMNTVYLQMNSLKPEDTAVYYCASYPSLYYTKYDYWGQGTQVTVSS”, “high polyreactivity”.
Then “QVQLVESGGGLVQAGGSLRLSCAASGSIFKYYAMGWYRQAPGKERELVAAITWSGGRTNYADSVKGRFTISRDNAKNTVYLQMNSLKPEDTAVYYCNKAYPGLERWYRGLYYWGQGTQVTVSS”, with “high polyreactivity”.
Consider “QVQLVESGGGLVQAGRSLRLSCAASGSISRFYAMGWYRQAPAKERELVGANSWSGGRTYYADSVKGRFTISRDNAKNTVYLQMNSLKPEDTAVYYCNAFRRYNDEDYWGQGTQVTVSS”, for which the “polyreactivity (PSR sort gate)” value was “high polyreactivity”.
To “QVQLVESGGGLVQAGGSLRLSCAPSGSIFPYYAMGWYRQAPGKERELVAVITTSGGRTYYADSVKGRFTISRDNAKNTVYLQMNSLKPEDTAVYYCATDVRQGSGWRYYYWGQGTQVTVSS” belongs “high polyreactivity”; to “QVQLVESGGGLVQAGGSLRLSCAASGRTFDEYPMGWYRQAPGKERELVAAISTRGGSTYYADSVKGRFSISRDNAKNTVYLQMNSLKPEDTAVYYCAKAYYPYRYFSVYSDLESWGQGTQVTVSS”, “high polyreactivity”; to “QVQLVDSGGGLVQAGGSLRLRCAASGITFLGNDMGWYRQAPGKERELVAAISSGSTNYADSVKGRFTISRDNANKTVDLQMNSLKPADPAVYYCAADIRGGLSNYSPKDYDYWGQGTQVTVSS”, “low polyreactivity”.
Then “QVQLVESGGGLVQAGGSLRLSCAASGRTFLGYAMGWYRQAPGKERELVAAISGSGDRTYYADSVKGRFTISRDNAKNTVYLQMNSLKPEDTAVYYCNAVTVRYYASYYGRGMDYWGQGTQVTVSS”, with “high polyreactivity”.
To “QVQLVESGGGLVQGGGSLRLSCAASGFTFVYYAMGWDRQAPGKERELVAAISRSGGSTYYADSVKGRFTISRDNAKNTFYLQMNSLKPEDTAVYYCAARKNYGSRLSYEYWGQGTQVSVSS” belongs “high polyreactivity”.
“QVQLVESGGGLVQAGGSLRLSCAASGNTFRSYAMGWYRQAPGKERELVAAISGRGGSTYYADSVKGRFTISRDNAKNTVDLQMNSRKPEDTAVYYCAAESRRVNYANDYWGQGTQVTVSS”: the “polyreactivity (PSR sort gate)” value is on record as “high polyreactivity”.
Then “QVQLVESGGGLVQAGGSLRLSCAASGSIFIVNDMGWYRQAPGKERELVAAISGRGGNTNYADSVKVRFTISRDNAKNTVYLQMNSLKPEDTSVYFCAARHTRDYDYWGQGTQVTVSS”, with “high polyreactivity”; and “QVQLVESGGGLVQAGGSLRLSCAASGIIFGEYAMGWYRQAPGKERELVAAISQSGGTYYADSVKGRFTISRDNAKNTVYLQMNSLKPEDTAVYYCNADYWAYISRVRYDYWGQGTQVTVSS”, with “low polyreactivity”; and “QVQLVESGGGLVQAGGSLRLSCAASGRTFPYYAMGWYRQAPGKERELVAAITGSGGRTYYADSVKGRFTISRDNAKNTVYLQMNRLKPEDTAVYYCATDRGYYTWRYGRNDYWGQGTLVTVSS”, with “high polyreactivity”.
To “QVQLVESVGGLVQAGGSLRLSSAASGYIFFGNAMGWYRQAPGKERELVAAIRWRGTSTYYADSVKGRFTISRDNAKNTVYLQMNSLKPEDTAVYYCAKDGRVHSPYDYWGQGTQVTVSS” belongs “low polyreactivity”; to “QVQLVESRGGLVQAGGSLRLSCAASGSIFLYYARGRSRQSPGKERELVAAIRRGGNTNYADSVKGRFTISRDNAKNTVYLQLNSLKPEDTAVYYCAAAQYSRYSRVPNYYAGTYYYWGQGTQVTVSS”, “low polyreactivity”.
For the sequence “QVHLVESGGGLVQAGGSLRLSCAASGRTFYDNAMVWYRQAPGKERELVAAISKRGSSTYYADSVKGRFTISRYTAKNSVYLEMNSLKPEDTAVYYCAADSLLGWSVEYWGKGTQVTVSS”, the “polyreactivity (PSR sort gate)” value is on record as “high polyreactivity”.
Then “QVQLVESGGGLVQAGGSLRLSCAASGITFSSYAMGWSRQAPGKERELVAAITSRGGSTYYADSVKGRFTISRDNAKNTVYLQMNSLKPEDTAVYYCNASRVRRWNDYYKKFDYWGQGTQVTVSS”, with “high polyreactivity”; and “QVQLVESGGGLVQAGGSLRLSCAASGRIFRFYAMGCYIQAPGKERELVAVITARGGSTYYADSVKGRFTISRDNAKNNVYLQMNSLKPEDTAVYYCASTRVKGYTVVKSRRGEIDYWGQGTQVTVSS”, with “high polyreactivity”; and “QVQLVESGGGLVQAGGSLRLSCAASGNIFVLYAMGWYRQAPGKERELVASITSDGITYYADSVKGRFTISRDNAKNTVYLQMNSLKPEDTAVYYCAVDRSYRYLPRGDYWGQGTQVTVSS”, with “low polyreactivity”.
